The EC50 is the concentration at which the effect is half-maximal. One may read the koff as the rate constant with which the complex falls apart. As a reminder, the kon is the rate constant with which the complex forms.

The values below come from patent publication US20230048360A1 (EUREKA THERAPEUTICS, published 2023).

For experiment [1], the target named is T1, full-length human GPC3 over-expressed on SK-Hep1-GPC3 cells (human, UniProt P51654 25-560).
T1 construct: also called GPC3 over-expressing SK-Hep1 cells
Kind of experiment: FACS, GPC3A L2K on SK-Hep1-GPC3 cells, APC anti-His; same L2K on GPC3-negative SK-Hep1 median 61.6. In general terms: Flow cytometry measures light scatter and fluorescence of single cells or particles in a stream.
Experimental: Cells were then washed once with PBS. APC-conjugated anti-His tag mouse antibody (R&D Systems) was added to the washed cells in a volume of 100 μl, at 20-fold dilution of 5% FBS in PBS and 0.05% NAN₃ and incubated for 1 hour at 4° C. in the dark. The cells were then washed twice with PBS. The cells were fixed in 3-fold dilution of fixation buffer (BioLegend) in PBS in a volume of 150 μl.

The target in experiment [2] is T2, cell surface-bound human GPC3 on GPC3+ HepG2 cells (human, UniProt P51654 25-560, GPI anchor and heparin sulfate side chains, as the filing describes native GPC3).
T2 construct: Endogenous GPC3 of the HepG2 line; also called Glypican 3; native GPC3
In words: FACS titration on GPC3+ HepG2 cells, anti-His detection.
Experimental: (§1) APC-conjugated anti-His tag mouse antibody (R&D Systems) was added in a volume of 100 μl, a 20-fold dilution of 5% FBS in PBS and 0.05% NaN₃ and incubated for 1 hour at 4° C. in the dark, then washed twice with PBS. The cells were fixed in 3-fold dilution of fixation buffer (BioLegend) in PBS in a volume of 150 μl. As a separate control, HepG2 cells were also incubated with APC-conjugated anti-His tag mouse antibody (R&D Systems) in the absence of any L2K bispecific antibody.

In experiment [3] the target is T2, cell surface-bound human GPC3 on GPC3+ …. In words: FACS on GPC3+ HepG2 cells, labelled on the sheet GPC3A L2K against control L2K; control L2K median 93.8; axis PE-A.
Experimental: (§2) APC-conjugated anti-His tag mouse antibody (R&D Systems) was added in a volume of 100 μl, a 20-fold dilution of 5% FBS in PBS and 0.05% NaN₃ and incubated for 1 hour at 4° C. in the dark, then washed twice with PBS. The cells were fixed in 3-fold dilution of fixation buffer (BioLegend) in PBS in a volume of 150 μl.
Experiment [4] shares this target. Kind of experiment: apparent Kd from FACS on GPC3+ HepG2 cells.
Experimental: as §1
Experiment [5] deals with T3, biotinylated recombinant human GPC3(560) (human, biotin on the C-terminal BirA substrate peptide ; Biotin on a lysine of the C-terminal BirA substrate peptide, which is not in the letters.).
T3 construct: Made in E. coli BL21 (pET-27b) from inclusion bodies and biotinylated with BirA; also called bt-GPC3(560); soluble bt-GPC3(560) protein
In words: SPR, Biacore X100, single-cycle kinetics, bt-GPC3(560) captured on chip, 1:1 model.
Experimental: All of the proteins used in the assay were diluted in HBS-E buffer prior to use. Briefly, 5-10 μg/ml of bt-GPC3₍₅₆₀₎ was immobilized onto a sensor chip pre-functionalized with CAPture Reagent and injected onto the flow cell. Affinity of the L2K bispecific antibodies for immobilized antigen was measured by injection of the various bispecific antibodies at 0.3-5 mg/ml with a 90 second association phase followed by a 90 second dissociation phase at a flow rate of 30 μl/min. At the end of each run, the surface of the sensor chip was regenerated using the reagents provided in the Biotin CAPture kit. Binding constants were determined by nonlinear regression analysis using a 1:1 binding model (BIACORE™ X-100 evaluation software, FIGS. 15A and 15B). The association-on-rate-kₒₙ, affinity constant-kₐ, dissociation constant-kd, and equilibrium dissociation constant-Kd were then calculated for each L2K clone (Table 14).

Experiment [6] addresses T4, biotinylated GPC3-51mer fragment (human, biotinylated (site not stated)).
T4 construct: Synthesized by Elim Biopharmaceuticals; also called bt-GPC3-51mer; hGPC3-51mer fragment
T4 peptide: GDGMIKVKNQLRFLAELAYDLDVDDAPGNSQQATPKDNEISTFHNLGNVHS
Kind of experiment: phage ELISA on biotinylated GPC3-51mer. For orientation: In an ELISA, binding on a coated surface is turned into a signal by an enzyme label.

The target of experiment [7] is T2, cell surface-bound human GPC3 on GPC3+ …. In words: FACS, mIgG1 on GPC3-positive HepG2 cells, PE anti-mouse IgG (H and L); control mIgG1 median 93.8.
Experiment [8] has the same target. In words: FACS on GPC3+ HepG2 cells, labelled on the sheet GPC3A L2K against control L2K; control L2K median 93.8; axis PE-A. This is another data set of the same source.
Experimental: as §2

B1: GPC3A-46 L2K (bispecific antibody)
chain: QAVLTQPPSVSGTPGQRVTISCSGSSSNFGSNTVHWYQQVPGTAPKLLIFSNTQRPSEIPDRFSGSKSGTSASLAISGLQSEDEADYYCAAWDDSLTGVVFGGGTKLTVLGSRGGGGSGGGGSGGGGSLEMAQVQLVQSGAEVKKPGASVTVSCKASGYRFSNYGVSWVRQAPGQGLEWMGWISGSNGNTNYAQKFLGRVTMTTDTSTTTAYMELSSLRSDDTAVYYCARGNRRYYSPIIDPWGQGTLVTVSSTSGGGGSDVQLVQSGAEVKKPGASVKVSCKASGYTFTRYTMHWVRQAPGQGLEWIGYINPSRGYTNYADSVKGRFTITTDKSTSTAYMELSSLRSEDTATYYCARYYDDHYCLDYWGQGTTVTVSSGEGTSTGSGGSGGSGGADDIVLTQSPATLSLSPGERATLSCRASQSVSYMNWYQQKPGKAPKRWIYDTSKVASGVPARFSGSGSGTDYSLTINSLEAEDAATYYCQQWSSNPLTFGGGTKVEIKHHHHHH
Turning to B1, the “Median : APC-A” value in experiment [1] stood at 657. Also, the EC50 in experiment [2] is 0.05 µg/mL. Further, the “Median : PE-A” value in experiment [3] came out at 9860. Besides, the Kd in experiment [4] worked out at 1 nM. Further, in experiment [5], the Kd worked out at 3.2 nM, the koff was 0.00129 s⁻¹ and the kon stood at 399000 M⁻¹ s⁻¹.

B2: GPC3A-43 phage clone (scFv)
scFv: QSVLTQPPSASGTPGQRVTISCSGSSSNIGTNYVYWYQQLPGTAPKLIIYRNNQRPSGVPDRFSGSESGTSASLAISGLRSEDEADYYCAVWDDSLSGVVFGGGTKLTVLGSRGGGGSGGGGSGGGGSLEMAEVQLVQSGAEVKKPGATVKVSCKVSGYTFTDYYMHWVQQAPGKGLEWMGLVDPEDGETIYAEKFQGRVTITADTSTDTAYMELSSLRSEDTAVYYCARELRDVAYYPWGVEDFWGQGTLVTVSS
notes: also called GPC3A-043
Take B2: the binding result in experiment [6] is given as “no binding”.

B3: anti-GPC3 mIgG1 clone A-56 (antibody, V domains shown)
VH: QVQLQQSGAEVKKFGASVKVSCKASGYSFNDYYIHWVRQAPGQGLEWMGWINPNNGDTKYEKKWQGRVTMTRDTSITTAYMELSSLRSDDTAVYYCARFSTHNWWWPTYDYWGQGTLVTVSS
VL: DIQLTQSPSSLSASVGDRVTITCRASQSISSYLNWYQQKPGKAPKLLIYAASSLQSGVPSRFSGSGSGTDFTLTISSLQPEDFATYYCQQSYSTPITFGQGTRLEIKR
notes: Fused to mouse IgG1 heavy chain and light chain constant regions
Regarding B3, the “Median : PE-A” value in experiment [7] was 5630.

B4: anti-GPC3 mIgG1 clone A-39 (antibody, V domains shown)
VH: QVQLVQSGGGLVHPGGSLRLSCAGSGFTFSSYAMHWVRQAPGKGLEWVSAIGTGGGTYYADSVKGRFTISRDNAKNSLYLQMNSLRAEDTAVYYCARYGRKSIDAWGQGTLVTVSS
VL: SYVLTQPPSVSVAPGKTARITCGGNNIGSKSVHWYQQKPGQAPVLVIYYDSDRPSGIPERFSGSNSGNTATLTISRVEAGDEADYYCQVWDSSSDHWVFGGGTKLTVLG
notes: also called anti-GPC3 mIgG1 A-39
Consider B4, for which the “Median : PE-A” value in experiment [7] stood at 6380.

B5: #64 GPC3A L2K (bispecific antibody)
tandem di-scFv: LPVLTQPPSLSVAPGKTARLTCGGNNIGSKSVHWYHQKPGQAPVLVVYDDTDRPSGIPERFSGSNSGNTAALTISRVEVGDEADYYCQVWDRSSAHWVFGGGTKLTVLGSRGGGGSGGGGSGGGGSLEMAQMQLVQSGAEVKKPGASVKVSCKASGYTFTIYGISWVRQAPGQGLEWMGWISPYNDNTIYAQKVQGRVTMTTDTSTSTAYMELRSLRSDDTAVYYCARMGVGWGYAQDSWGQGTLVTVSSTSGGGGSDVQLVQSGAEVKKPGASVKVSCKASGYTFTRYTMHWVRQAPGQGLEWIGYINPSRGYTNYADSVKGRFTITTDKSTSTAYMELSSLRSEDTATYYCARYYDDHYCLDYWGQGTTVTVSSGEGTSTGSGGSGGSGGADDIVLTQSPATLSLSPGERATLSCRASQSVSYMNWYQQKPGKAPKRWIYDTSKVASGVPARFSGSGSGTDYSLTINSLEAEDAATYYCQQWSSNPLTFGGGTKVEIKHHHHHH
notes: also called GPC3A-64 L2K; GPC3-64 L2K
Regarding B5, the “Median : PE-A” value in experiment [8] was found to be 6600.

B6: GPC3A-37 phage clone (scFv)
scFv: QSVLTQPPSVSAAPGQRVTISCSGTRSNIGSDYVSWYQHLPGTAPKLLVYGDNLRPSGIPDRFSASKSGTSATLGITGLQTGDEADYYCGTWDYTLNGVVFGGGTKLTVLGSRGGGGSGGGGSGGGGSLEMAQVQLVESGGGLVQPGGSLRLSCAASGFTFSSYAMSWVRQAPGKGLEWVSVIYSGGSSTYYADSVKGRFTISRDNSKNTLYLQMNSLRAEDTAVYYCARTSYLNHGDYWGQGTLVTVSS
notes: also called GPC3A-037
Turning to B6, the binding result in experiment [6] is recorded as “no binding”.

B7: #51 GPC3A L2K (bispecific antibody)
tandem di-scFv: QAVLTQPSSASGAPGQRVTISCTGGSSNIGAGYDVHWYQQLPGTAPKLLIYGNSNRPSGVPDRFSGSKSGTSASLAITGLQAEDEADYYCQSYDSSLSGYVFGTGTKVTVLGSRGGGGSGGGGSGGGGSLEMAQVQLVQSGAEVKKPGSSVKVSCKASGGAFSSYAISWVRQAPGQGLEWMGGIIPIFGTANYAQKFQGRVTITADESTSTAYMELSSLRSEDTAVYYCARMLYLSGRYYWDSWGQGTLVTVSSTSGGGGSDVQLVQSGAEVKKPGASVKVSCKASGYTFTRYTMHWVRQAPGQGLEWIGYINPSRGYTNYADSVKGRFTITTDKSTSTAYMELSSLRSEDTATYYCARYYDDHYCLDYWGQGTTVTVSSGEGTSTGSGGSGGSGGADDIVLTQSPATLSLSPGERATLSCRASQSVSYMNWYQQKPGKAPKRWIYDTSKVASGVPARFSGSGSGTDYSLTINSLEAEDAATYYCQQWSSNPLTFGGGTKVEIKHHHHHH
notes: also called GPC3A-51 L2K
On to B7, for which, in experiment [1], the “Median : APC-A” value is 677. Further, the “Median : PE-A” value in experiment [3] worked out at 12200.

B8: anti-GPC3 mIgG1 clone A-58 (antibody, V domains shown)
VH: QVQLVQSGADVRKPGASVKVSCKASGYTFASHGISWVRQAPGQGLEWLGWISPYTGNTNYAQKFQGRVTMATDTSTSTAYMELRSLRSDDTAIYYCARGKRTLASCFDYWGQGTLVTVSS
VL: QSVLTQPPSVSVAPGKTARITCGGNNIGSKSVHWYQQKPGQAPVLVVYDDSDRPSGIPERFSGSNSGNTATLTISRVEAGDEADYYCQVWDSSSDHVFGTGTKVTVLG
notes: Fused to mouse IgG1 heavy chain and light chain constant regions; also called GPC3A mIgG1 clone A-58
Consider B8, for which, in experiment [7], the “Median : PE-A” value worked out at 8030.

B9: #39 GPC3A L2K (bispecific antibody)
tandem di-scFv: SYVLTQPPSVSVAPGKTARITCGGNNIGSKSVHWYQQKPGQAPVLVIYYDSDRPSGIPERFSGSNSGNTATLTISRVEAGDEADYYCQVWDSSSDHWVFGGGTKLTVLGSRGGGGSGGGGSGGGGSLEMAQVQLVQSGGGLVHPGGSLRLSCAGSGFTFSSYAMHWVRQAPGKGLEWVSAIGTGGGTYYADSVKGRFTISRDNAKNSLYLQMNSLRAEDTAVYYCARYGRKSIDAWGQGTLVTVSSTSGGGGSDVQLVQSGAEVKKPGASVKVSCKASGYTFTRYTMHWVRQAPGQGLEWIGYINPSRGYTNYADSVKGRFTITTDKSTSTAYMELSSLRSEDTATYYCARYYDDHYCLDYWGQGTTVTVSSGEGTSTGSGGSGGSGGADDIVLTQSPATLSLSPGERATLSCRASQSVSYMNWYQQKPGKAPKRWIYDTSKVASGVPARFSGSGSGTDYSLTINSLEAEDAATYYCQQWSSNPLTFGGGTKVEIKHHHHHH
notes: also called GPC3A-39 L2K
B9: in experiment [1], the “Median : APC-A” value is 445. For the same molecule, the “Median : PE-A” value in experiment [3] is 6380.

B10: GPC3A-55 L2K (bispecific antibody)
chain: QPVLTQPPSVSVAPGKTARITCGGNNIGSKSVHWYQQKPGQAPVLVIYYDSDRPSGIPERFSGSNSGNTATLTISRVEAGDEADYYCQVWDSSSDHYVFGTGTKVTVLGSRGGGGSGGGGSGGGGSLEMAQVQLVQSGAEVKKPGASVKVSCKASGYTFTSYYMHWVRQAPGQGLEWMGIINPSGGSTSYAQKFQGRVTMTRDTSTSTVYMELSSLRSEDTAVYYCARWHGGPYDYWGQGTLVTVSSTSGGGGSDVQLVQSGAEVKKPGASVKVSCKASGYTFTRYTMHWVRQAPGQGLEWIGYINPSRGYTNYADSVKGRFTITTDKSTSTAYMELSSLRSEDTATYYCARYYDDHYCLDYWGQGTTVTVSSGEGTSTGSGGSGGSGGADDIVLTQSPATLSLSPGERATLSCRASQSVSYMNWYQQKPGKAPKRWIYDTSKVASGVPARFSGSGSGTDYSLTINSLEAEDAATYYCQQWSSNPLTFGGGTKVEIKHHHHHH
In turn, B10 gave a concentration giving a half-maximal response (EC50) in experiment [2] of 0.045 µg/mL. In addition, the Kd in experiment [4] was 0.86 nM. In experiment [5], the Kd was determined as 2.3 nM, the koff turned out to be 0.00161 s⁻¹ and the kon was determined as 705000 M⁻¹ s⁻¹.

B11: GPC3A-42 phage clone (scFv)
scFv: SYVLTQPPSASGTPGQRVTISCFGSSSDIGSNSVFWYQQLPGAAPKLLIYSTQYRPSGVPDRFSGSKSGTSASLAISGLQSEDEAEYHCATWDDSLNGYVFGSGTKVTVLGSRGGGGSGGGGSGGGGSLEMAQVQLQQSGAEVKKPGASVKVSCKASGYSFTGYYVYWMRQAPGKGLEWMGWMNPRSGGTNYAQKFQGRVTMTRDTSISTAYMELSRLTSDDTAVYYCARSSYYWADSWGQGTLVTVSS
notes: also called GPC3A-042
On to B11, for which the binding result in experiment [6] is recorded as “no binding”.

B12: anti-GPC3 mIgG1 clone A-46 (antibody, V domains shown)
VH: QVQLVQSGAEVKKPGASVTVSCKASGYRFSNYGVSWVRQAPGQGLEWMGWISGSNGNTNYAQKFLGRVTMTTDTSTTTAYMELSSLRSDDTAVYYCARGNRRYYSPIIDPWGQGTLVTVSS
VL: QAVLTQPPSVSGTPGQRVTISCSGSSSNFGSNTVHWYQQVPGTAPKLLIFSNTQRPSEIPDRFSGSKSGTSASLAISGLQSEDEADYYCAAWDDSLTGVVFGGGTKLTVLG
notes: Fused to mouse IgG1 heavy chain and light chain constant regions; also called GPC3A mIgG1 clone A-46
For the molecule B12, in experiment [7], the “Median : PE-A” value was 9860.
